This note sets out measurements from publication PMC3513585.

pKd: −log10 of the molar value.

In the experiment the target is denatured human type I collagen (gelatin) (human) (UniProt P02452). Description: ELISA. Background: An ELISA detects its analyte on a solid surface through an enzyme-linked reagent.
Sequence of denatured human type I collagen (gelatin) (human) (P02452 162-1218, chain 1 of 2): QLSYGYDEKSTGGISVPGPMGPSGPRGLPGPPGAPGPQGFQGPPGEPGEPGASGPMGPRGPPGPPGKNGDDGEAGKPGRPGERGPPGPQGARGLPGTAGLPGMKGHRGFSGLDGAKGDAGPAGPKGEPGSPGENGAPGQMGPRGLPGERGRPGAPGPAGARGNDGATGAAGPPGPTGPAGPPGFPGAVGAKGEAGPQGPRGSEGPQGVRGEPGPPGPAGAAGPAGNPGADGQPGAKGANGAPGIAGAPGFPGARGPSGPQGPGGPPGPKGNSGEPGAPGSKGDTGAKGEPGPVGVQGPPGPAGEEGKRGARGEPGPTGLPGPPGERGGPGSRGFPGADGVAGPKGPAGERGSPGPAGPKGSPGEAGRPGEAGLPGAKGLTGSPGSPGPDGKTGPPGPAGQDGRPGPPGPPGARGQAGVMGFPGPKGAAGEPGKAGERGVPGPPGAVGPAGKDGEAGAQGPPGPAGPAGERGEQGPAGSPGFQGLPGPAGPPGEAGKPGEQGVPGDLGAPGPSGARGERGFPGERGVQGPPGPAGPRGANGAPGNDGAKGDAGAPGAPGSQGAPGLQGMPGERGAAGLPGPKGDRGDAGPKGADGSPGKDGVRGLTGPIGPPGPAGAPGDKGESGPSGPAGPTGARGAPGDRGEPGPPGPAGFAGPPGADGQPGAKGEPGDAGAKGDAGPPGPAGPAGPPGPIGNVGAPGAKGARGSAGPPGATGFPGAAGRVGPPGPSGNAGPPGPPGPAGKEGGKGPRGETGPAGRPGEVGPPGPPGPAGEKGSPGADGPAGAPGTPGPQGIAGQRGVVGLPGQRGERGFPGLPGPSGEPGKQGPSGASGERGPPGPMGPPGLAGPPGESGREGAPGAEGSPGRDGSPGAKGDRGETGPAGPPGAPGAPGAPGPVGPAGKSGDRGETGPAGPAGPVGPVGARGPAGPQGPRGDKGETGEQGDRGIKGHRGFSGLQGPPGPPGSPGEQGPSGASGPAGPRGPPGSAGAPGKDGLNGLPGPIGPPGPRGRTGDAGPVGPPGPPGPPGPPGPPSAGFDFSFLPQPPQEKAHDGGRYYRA
Sequence of denatured human type I collagen (gelatin) (human) (P08123 80-1119, chain 2 of 2, further chain): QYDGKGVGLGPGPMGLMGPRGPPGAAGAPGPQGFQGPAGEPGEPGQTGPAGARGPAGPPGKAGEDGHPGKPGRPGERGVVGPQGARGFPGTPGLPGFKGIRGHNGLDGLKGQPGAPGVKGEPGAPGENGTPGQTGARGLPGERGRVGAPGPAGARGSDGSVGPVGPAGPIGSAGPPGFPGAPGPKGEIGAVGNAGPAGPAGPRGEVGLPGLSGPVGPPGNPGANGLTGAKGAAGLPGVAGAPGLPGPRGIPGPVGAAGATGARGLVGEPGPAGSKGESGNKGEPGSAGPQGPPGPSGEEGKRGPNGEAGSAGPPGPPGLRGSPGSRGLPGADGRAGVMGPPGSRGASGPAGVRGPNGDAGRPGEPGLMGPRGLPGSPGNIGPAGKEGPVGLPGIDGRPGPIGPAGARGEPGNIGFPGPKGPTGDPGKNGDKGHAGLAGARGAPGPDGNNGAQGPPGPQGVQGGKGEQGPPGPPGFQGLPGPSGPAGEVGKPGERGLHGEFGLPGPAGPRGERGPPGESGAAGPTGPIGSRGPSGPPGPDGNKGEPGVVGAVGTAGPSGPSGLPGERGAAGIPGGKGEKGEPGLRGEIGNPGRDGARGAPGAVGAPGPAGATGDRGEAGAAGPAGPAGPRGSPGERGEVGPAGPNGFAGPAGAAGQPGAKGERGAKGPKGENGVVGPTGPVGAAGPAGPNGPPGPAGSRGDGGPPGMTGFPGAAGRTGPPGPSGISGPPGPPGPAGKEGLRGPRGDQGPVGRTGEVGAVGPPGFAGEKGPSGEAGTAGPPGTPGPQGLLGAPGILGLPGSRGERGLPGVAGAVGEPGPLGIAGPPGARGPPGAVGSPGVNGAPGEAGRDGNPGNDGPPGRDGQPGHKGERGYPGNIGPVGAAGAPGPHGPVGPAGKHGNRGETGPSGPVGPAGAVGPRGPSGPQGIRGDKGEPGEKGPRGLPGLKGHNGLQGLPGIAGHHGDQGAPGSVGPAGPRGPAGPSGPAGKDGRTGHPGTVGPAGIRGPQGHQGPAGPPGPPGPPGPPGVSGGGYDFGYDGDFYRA
On to “MMP-2 R252A (variant of MMP-2Δpro, CBD module 1) (from UniProt P08253 30-660) (enzyme)”, for which the negative logarithm of the Kd (pKd) (in general, the negative decadic logarithm of the Kd, by convention in mol/L) was 8.59.

The substance “MMP-2 R252A/F297A (variant of MMP-2Δpro, CBD modules 1+2) (from UniProt P08253 30-660) (enzyme)” showed a negative-log Kd (pKd) of 8.23.

For “MMP-2Δpro (constitutively active matrix metalloproteinase-2 without the prodomain; wild-type) (from UniProt P08253 30-660) (enzyme)”, the pKd was 8.99.

“MMP-2 F297A/R368A (variant of MMP-2Δpro, CBD modules 2+3) (from UniProt P08253 30-660) (enzyme)” had a pKd of 7.42.

The substance “MMP-2 R252A/R368A (variant of MMP-2Δpro, CBD modules 1+3) (from UniProt P08253 30-660) (enzyme)” showed a pKd of 8.13.

In turn, “MMP-2 R368A (variant of MMP-2Δpro, CBD module 3) (from UniProt P08253 30-660) (enzyme)” showed a negative-log Kd (pKd) of 8.45.

“MMP-2 F297A (variant of MMP-2Δpro, CBD module 2) (from UniProt P08253 30-660) (enzyme)” gave a negative-log Kd (pKd) of 8.55.
